Measurements: patent US12527847B1, “Compositions and methods for reducing blood ethanol concentration through alcohol dehydrogenase and acetaldehyde scavengers” (Goa Therapeutics Corporation, priority 2025, dated 2026)

Columns and labels:
[1] = In vivo blood EtOH concentration in rodents after oral EtOH; parameters: species or system Sprague-Dawley rats; settings: rat blood, 2 g/kg EtOH oral, ADH 600 U/kg IP
Method: The study was performed to evaluate the efficacy of a combined formulation of ADH and AcH scavengers in reducing blood EtOH and AcH concentrations in an in vivo rodent model.
12 male Sprague-Dawley rats (200 to 250 g), housed under standard conditions (12-hour light/dark cycle, 22±2° C.) were administered with 2 g/kg EtOH orally via gavage.
Groups (n=3): Group 1 (Control): EtOH only (no ADH or scavengers). Group 2: EtOH+ADH (600 U/kg, intraperitoneally). Group 3: EtOH+AcH scavenger-containing composition. Group 4 (Combined): EtOH+ADH (600 U/kg, IP)+AcH scavenger-containing composition.
Blood samples were collected from the tail vein at 0, 15, 30, 60, and 120 minutes post-EtOH administration. EtOH concentration was measured using a NAD/NADH-based enzymatic assay.

[2] = test system: ADH; test: Stability and degradation profile of ADH in the presence of AcH scavengers over time; type: physicochemical, Saccharomyces cerevisiae; settings: 37° C., gentle shaking
Method: Conditions: 37° C. for up to 60 min with gentle shaking (100 rpm), ADH activity assessed via NADH production (340 nm). AcH scavenger-containing composition (total 455 mg): Thiamine hydrochloride (Vitamin B1): 100 mg; Glutathione (GSH): 15 mg; NAC (N-Acetyl-Cysteine) OR L-Cysteine: 200 mg; α-Lipoic acid: 40 mg; Pyridoxine hydrochloride (Vitamin B6): 100 mg and buffer Solution: 100 mM sodium phosphate buffer, pH 7.4.

[3] = test system: HepG2 Liver Cells; test: HepG2 ROS under EtOH exposure (DCFH-DA assay); type: cell-based; settings: HepG2, 100 mM EtOH for 24 hours
Method: (§1) Cells were exposed to 100 mM EtOH for 24 hours. Group 1 (Control): EtOH only; Group 2: EtOH+ADH; Group 3: EtOH+AcH scavenger-containing composition; and Group 4 (Combined): EtOH+ADH+AcH scavenger-containing composition.
(§2) Cell viability was detected by MTT assay (absorbance at 570 nm). ROS (Reactive Oxygen Species) was detected by DCFH-DA assay (fluorescence at 488 nm).

[4] = test system: ADH purified from Saccharomyces cerevisiae; test: Enzyme kinetics of ADH with AcH scavengers (Michaelis-Menten, NADH production at 340 nm); type: biochemical; settings: pH 7.4, 37° C., 5 min incubation
Method: ADH purified from Saccharomyces cerevisiae (500 U/mg protein) was used. EtOH Concentrations: 5, 10, 20, 50, 100, 200 mM. Reaction Volume: 1 mL with 100 mM sodium phosphate buffer (pH 7.4). 37° C., 5 min incubation. NADH production measured at 340 nm using a spectrophotometer. Two groups: a) control ADH+EtOH; and b) ADH+EtOH+AcH scavenger mixture.

[5] = test system: HepG2 Liver Cells; test: HepG2 cell viability under EtOH exposure (MTT assay); type: cell-based; settings: HepG2, 100 mM EtOH for 24 hours
Method: as §1, §2

[6] = In vitro AcH concentration after ADH and AcH scavengers (modified Hantzsch reaction assay, 412 nm); type: biochemical; settings: 100 mM EtOH start, 200 U ADH, 455 mg scavenger mixture, pH 7.4, 37° C., 30 minutes
Method: (§3) An in vitro study was conducted to evaluate the effect of a combined formulation of ADH and AcH scavengers on the reduction of EtOH and AcH concentrations. The study was designed to assess the enzymatic conversion of EtOH to AcH by ADH and the subsequent removal of AcH by scavengers. The experiment was performed using enzyme preparation from yeast (Saccharomyces cerevisiae).
(§4) The following materials and reagents were used: EtOH 99.9% pure, analytical grade and ADH purified from Saccharomyces cerevisiae (500 U/mg protein) (SEQ ID NO: 1, see Table 1). AcH scavenger-containing composition (total 455 mg): Thiamine hydrochloride (Vitamin B1): 100 mg; Glutathione (GSH): 15 mg; NAC (N-Acetyl-Cysteine) OR L-Cysteine: 200 mg; α-Lipoic acid: 40 mg; Pyridoxine hydrochloride (Vitamin B6): 100 mg and buffer Solution: 100 mM sodium phosphate buffer, pH 7.4.
(§5) The experiment was conducted in triplicate with appropriate controls to ensure reproducibility. […]
(§6) EtOH concentration was measured using a NAD/NADH-based enzymatic assay with a spectrophotometer at 340 nm. AcH concentration was measured using a modified Hantzsch reaction assay, which detects AcH at 412 nm.

[7] = In vitro reduction of EtOH by ADH and AcH scavengers (NAD/NADH-based enzymatic assay, 340 nm); type: biochemical; settings: 200 U ADH, 455 mg scavenger mixture, pH 7.4, 37° C., 30 minutes
Method: as §3, §4, §5, §6

B1: ADH: ADH purified from Saccharomyces cerevisiae (500 U/mg protein), SEQ ID NO: 1 (protein, listed as Saccharomyces cerevisiae)
chain: MSTAVAVLTSNADTDIFAKPVAGVDGSHVIDAAAVFGLGKETVVDALKDYKTGATTPAVAQKLGVEGAKALVGVPQKVESNDFFVAKAKDAGTEVIVGGMGGVGLSAIGASLKPGYELDKAKIEVASKLAAGAKVTVITPQCGHEVIVGVPPDSQNLSMRIAQLGGKSPFTKEKDLNYFAVEKAKELGATGSKIINLIMGKVMPEGQKIHLGHEIVGDLGVVTKDAASGKLPIISIGHEAVKNAVKVLENAELEGLTKEGAKVTVVGNPQIYSDDHVAVAGTSLSTLNKLLDAIKKADTSKPIQEVLSDKAKEVGIEEGLMTTVHAITGAAGAASALPFGVTAAL
EtOH concentration (% of control) ([1]; 0 min): 95 % of control
EtOH concentration (% of control) ([1]; 15 min): 85.2 % of control
EtOH concentration (% of control) ([1]; 30 min): 75.8 % of control
EtOH concentration (% of control) ([1]; 60 min): 68 % of control
EtOH concentration (% of control) ([1]; 120 min): 44.8 % of control
ADH activity (% of t = 0) ([2]; 30 min): 87 % of t = 0
ADH activity (% of t = 0) ([2]; 60 min): 62 % of t = 0
ROS (% of control) ([3]; DCFH-DA, control = EtOH only): 85.6 % of control
ROS Impact (in words) ([3]; results interpretation): Moderate ROS
Vmax ([4]; EtOH 5-200 mM): 105.2 µmol/min
kcat ([4]; EtOH 5-200 mM): 105.2
Km ([4]; substrate EtOH 5-200 mM): 32.5 mM
Cell viability (%) ([5]; MTT): 67.1%
Overall Impact on Viability (in words) ([5]; results interpretation): Viability increases
AcH Final [6]: 235 µM
EtOH Final ([7]; 100 mM EtOH start): 85.8 mM
EtOH Reduction (%) ([7]; 100 mM EtOH, 1 mL): 14.2%
